Results reported in patent publication US10314925B2, “Thymidine kinase” (priority 2004, dated 2019).

Tests used:
[1] = tested on: circulating modified cells; conditions: six patients who developed GvHD and received ganciclovir; cited from earlier work
[2] = tested on: HSV-tk; experiment: RT-PCR of HSV-tk mutants, RNA from Am12 supernatants; design: species or system HSV-1; conditions: for lower band (spliced form): TKA1/TKB1 primers
Excerpt: After sequence confirmation of SFCMM-3 HSV-tk mutants (FIGS. 1A-1C), one plasmid clone of each type was used to transiently transfect E86 cells. SFCMM-3 and TK3 plasmids were used as controls. The supernatant was collected from the E86 cultures and used to stably transduce the amphotropic packaging cell line Am12 as described in Materials and Methods section of Example 2. The resulting cell populations were selected for ΔLNGFR expression.
RNA was extracted from the E86 as well as Am12 culture supernatants containing infectious retroviral particles. RT-PCR reactions were carried out on RNA from E86 and Am12 supernatants using TKA1 and TKB1 primers according to the protocol described in Materials and Methods section of Example 2.

[3] = tested on: HSV-tk; experiment: PCR of genomic DNA from transduced CEM A301 cells; type: cell-based, HSV-1; conditions: CEM A301, TKA1/TKB1 primers, before and after selection
Experimental: CEM A301 cells were cultured in RPMI 1640 (Hyclone) supplemented with 10% FBS (Hyclone) and 2 mM glutamine. CEM A301 cells were infected with Am12 culture supernatant containing SFCMM-3 HSV-tk mutants 2 and 234. The day before transduction 5×10^5 cells/ml were cultured. Transduction was then performed by one centrifugation cycle of retroviral vector particles on cells. After the transduction phase, cells were collected and the percentage of actually transduced cells evaluated by FACS analysis. PBLs from three different donors were transduced (as described in Materials and Methods section of Example 2) with Am12 supernatant containing SFCMM-3 HSV-tk mutant 2 as well as SFCMM-3.
The transduced cells were then sorted for ΔLNGFR expression and expanded a few days in culture.
One pellet for PCR analysis was prepared from the transduced non selected cells as well as from transduced selected cells as described in Materials and Methods section of Example 2. Genomic DNA was extracted from pellet cells and PCR reaction was carried out with TKA1 and TKB1 or TKY1 and TKY2 or TKZ1 and TKZ2 primers (as indicated in the table below) in a 25 μl reaction mixture containing 100-500 ng of genomic DNA, 1×PCR Buffer with 1.5 mM of MgCl2 (Applied Biosystems), […] of each dNTPs, 300 nM of each primer, 1.25 Units of AmpliTaq Gold (Applied Biosystems). The PCR cycling profile consisted of a first denaturation step for 15 min at 94° C. followed by 40 cycles with denaturation for 30 s at 94° C., annealing for 50 s at 60° C. and extension for 1 min at 72° C., and one final extension step of 10 min at 72° C., […] Ten microliters of amplified product were analyzed by agarose gel electrophoresis.

Row | Molecule | average decrease in absolute number of circulating modified cells [1] [%] | spliced product compared to TK3 and SFCMM-3 (ethidium bromide signal) [2] | lower band (spliced form) [2] | additional bands [2] | lower band (spliced form of HSV-tk gene) [3]
1 | Nc1nc(O)c2ncn(COC(CO)CO)c2n1 [ganciclovir] | 85 | – | – | – | –
2 | TkMut4 (nucleic acid, HSV-1 thymidine kinase mutant sequence.) DNA: ATGGCTTCGTACCCCTGCCATCAACACGCGTCTGCGTTCGACCAGGCTGCGCGTTCTCGCGGCCATAGCAACCGACGTACGGCGTTGCGCCCTCGCCGGCAGCAAGAAGCCACGGAAGTCCGCCTGGAGCAGAAAATGCCCACGCTACTGCGGGTTTATATAGACGGTCCTCACGGGATGGGGAAAACCACCACCACGCAACTGCTGGTGGCCCTGGGTTCGCGCGACGATATCGTCTACGTACCCGAGCCGATGACTTACTGGCAGGTGCTGGGGGCTTCCGAGACAATCGCGAACATCTACACCACACAACACCGCCTCGACCAGGGTGAGATATCGGCCGGGGACGCGGCGGTGGTAATGACAAGCGCCCAGATAACAATGGGCATGCCTTATGCCGTGACCGACGCCGTTCTGGCTCCTCATGTCGGGGGGGAGGCTGGGAGTTCACATGCCCCGCCCCCGGCCCTCACCCTCATCTTCGACCGCCATCCCATCGCCGCCCTCCTGTGCTACCCGGCCGCGCGATACCTTATGGGCAGCATGACCCCCCAAGCCGTGCTGGCGTTCGTGGCCCTCATCCCGCCGACCTTGCCCGGCACAAACATCGTGTTGGGGGCCCTTCCGGAGGACAGACACATCGACCGCCTGGCCAAACGCCAGCGCCCCGGCGAGCGGCTTGACCTGGCTATGCTGGCCGCGATTCGCCGCGTTTACGGGCTGCTTGCCAATACGGTGCGGTATCTGCAGGGCGGCGGGTCGTGGTGGGAGGATTGGGGACAGCTTTCGGGGACGGCCGTGCCGCCCCAGGGTGCCGAGCCCCAGAGCAACGCGGGCCCACGACCCCATATCGGGGACACGTTATTTACCCTGTTTCGGGCCCCCGAGTTGCTGGCCCCCAACGGCGACCTGTATAACGTGTTTGCCTGGGCCTTGGACGTCTTGGCCAAACGCCTCCGTCCCATGCACGTCTTTATCCTGGATTACGACCAATCGCCCGCCGGCTGCCGGGACGCCCTGCTGCAACTTACCTCCGGGATGGTCCAGACCCACGTCACCACCCCAGGCTCCATACCGACGATCTGCGACCTGGCGCGCACGTTTGCCCGGGAGATGGGGGAGGCTAACTGA | – | less represented | lower band is detected | – | –
3 | TkMut24 (nucleic acid, HSV-1 thymidine kinase mutant sequence.) DNA: ATGGCTTCGTACCCCTGCCATCAACACGCGTCTGCGTTCGACCAGGCTGCGCGTTCTCGCGGCCATAGCAACCGACGTACGGCGTTGCGCCCTCGCCGGCAGCAAGAAGCCACGGAAGTCCGCCTGGAGCAGAAAATGCCCACGCTACTGCGGGTTTATATAGACGGTCCTCACGGGATGGGGAAAACCACCACCACGCAACTGCTGGTGGCCCTGGGTTCGCGCGACGATATCGTCTACGTACCCGAGCCGATGACTTACTGGCAGGTGCTGGGGGCTTCCGAGACAATCGCGAACATCTACACCACACAACACCGCCTCGACCAGGGCGAGATATCGGCCGGGGACGCGGCGGTGGTAATGACAAGCGCCCAGATAACAATGGGCATGCCTTATGCCGTGACCGACGCCGTTCTGGCTCCTCATGTCGGGGGGGAGGCTGGGAGTTCACATGCCCCGCCCCCGGCCCTCACCCTCATCTTCGACCGCCATCCCATCGCCGCCCTCCTGTGCTACCCGGCCGCGCGATACCTTATGGGCAGCATGACCCCCCAAGCCGTGCTGGCGTTCGTGGCCCTCATCCCGCCGACCTTGCCCGGCACAAACATCGTGTTGGGGGCCCTTCCGGAGGACAGACACATCGACCGCCTGGCCAAACGCCAGCGCCCCGGCGAGCGGCTTGACCTGGCTATGCTGGCCGCGATTCGCCGCGTTTACGGGCTGCTTGCCAATACGGTGCGGTATCTGCAGGGCGGCGGGTCGTGGTGGGAGGATTGGGGACAGCTTTCGGGGACGGCCGTGCCGCCCCAGGGTGCCGAGCCCCAGAGCAACGCGGGCCCACGACCCCATATCGGGGACACGTTATTTACCCTGTTTCGGGCCCCCGAGTTGCTGGCCCCCAACGGCGACCTGTATAACGTGTTTGCCTGGGCCTTGGACGTCTTGGCCAAACGCCTCCGTCCCATGCACGTCTTTATCCTGGATTACGACCAATCGCCCGCCGGCTGCCGGGACGCCCTGCTGCAACTTACCTCCGGGATGGTCCAGACCCACGTCACCACCCCAGGCTCCATACCGACGATCTGCGACCTGGCGCGCACGTTTGCCCGGGAGATGGGGGAGGCTAACTGA | – | – | not detected | two very weak bands of approximately 100 and 200 bp are detected | –
4 | TkMut234 (nucleic acid, HSV-1 thymidine kinase mutant sequence.) DNA: ATGGCTTCGTACCCCTGCCATCAACACGCGTCTGCGTTCGACCAGGCTGCGCGTTCTCGCGGCCATAGCAACCGACGTACGGCGTTGCGCCCTCGCCGGCAGCAAGAAGCCACGGAAGTCCGCCTGGAGCAGAAAATGCCCACGCTACTGCGGGTTTATATAGACGGTCCTCACGGGATGGGGAAAACCACCACCACGCAACTGCTGGTGGCCCTGGGTTCGCGCGACGATATCGTCTACGTACCCGAGCCGATGACTTACTGGCAGGTGCTGGGGGCTTCCGAGACAATCGCGAACATCTACACCACACAACACCGCCTCGACCAGGGCGAGATATCGGCCGGGGACGCGGCGGTGGTAATGACAAGCGCCCAGATAACAATGGGCATGCCTTATGCCGTGACCGACGCCGTTCTGGCTCCTCATGTCGGGGGGGAGGCTGGGAGTTCACATGCCCCGCCCCCGGCCCTCACCCTCATCTTCGACCGCCATCCCATCGCCGCCCTCCTGTGCTACCCGGCCGCGCGATACCTTATGGGCTCCATGACCCCCCAAGCCGTGCTGGCGTTCGTGGCCCTCATCCCGCCGACCTTGCCCGGCACAAACATCGTGTTGGGGGCCCTTCCGGAGGACAGACACATCGACCGCCTGGCCAAACGCCAGCGCCCCGGCGAGCGGCTTGACCTGGCTATGCTGGCCGCGATTCGCCGCGTTTACGGGCTGCTTGCCAATACGGTGCGGTATCTGCAGGGCGGCGGGTCGTGGTGGGAGGATTGGGGACAGCTTTCGGGGACGGCCGTGCCGCCCCAGGGTGCCGAGCCCCAGAGCAACGCGGGCCCACGACCCCATATCGGGGACACGTTATTTACCCTGTTTCGGGCCCCCGAGTTGCTGGCCCCCAACGGCGACCTGTATAACGTGTTTGCCTGGGCCTTGGACGTCTTGGCCAAACGCCTCCGTCCCATGCACGTCTTTATCCTGGATTACGACCAATCGCCCGCCGGCTGCCGGGACGCCCTGCTGCAACTTACCTCCGGGATGGTCCAGACCCACGTCACCACCCCAGGCTCCATACCGACGATCTGCGACCTGGCGCGCACGTTTGCCCGGGAGATGGGGGAGGCTAACTGA | – | – | not detected | two very weak bands of approximately 100 and 200 bp are detected | No lower band is observed
5 | TkMut34 (nucleic acid, HSV-1 thymidine kinase mutant sequence.) DNA: ATGGCTTCGTACCCCTGCCATCAACACGCGTCTGCGTTCGACCAGGCTGCGCGTTCTCGCGGCCATAGCAACCGACGTACGGCGTTGCGCCCTCGCCGGCAGCAAGAAGCCACGGAAGTCCGCCTGGAGCAGAAAATGCCCACGCTACTGCGGGTTTATATAGACGGTCCTCACGGGATGGGGAAAACCACCACCACGCAACTGCTGGTGGCCCTGGGTTCGCGCGACGATATCGTCTACGTACCCGAGCCGATGACTTACTGGCAGGTGCTGGGGGCTTCCGAGACAATCGCGAACATCTACACCACACAACACCGCCTCGACCAGGGTGAGATATCGGCCGGGGACGCGGCGGTGGTAATGACAAGCGCCCAGATAACAATGGGCATGCCTTATGCCGTGACCGACGCCGTTCTGGCTCCTCATGTCGGGGGGGAGGCTGGGAGTTCACATGCCCCGCCCCCGGCCCTCACCCTCATCTTCGACCGCCATCCCATCGCCGCCCTCCTGTGCTACCCGGCCGCGCGATACCTTATGGGCTCCATGACCCCCCAAGCCGTGCTGGCGTTCGTGGCCCTCATCCCGCCGACCTTGCCCGGCACAAACATCGTGTTGGGGGCCCTTCCGGAGGACAGACACATCGACCGCCTGGCCAAACGCCAGCGCCCCGGCGAGCGGCTTGACCTGGCTATGCTGGCCGCGATTCGCCGCGTTTACGGGCTGCTTGCCAATACGGTGCGGTATCTGCAGGGCGGCGGGTCGTGGTGGGAGGATTGGGGACAGCTTTCGGGGACGGCCGTGCCGCCCCAGGGTGCCGAGCCCCAGAGCAACGCGGGCCCACGACCCCATATCGGGGACACGTTATTTACCCTGTTTCGGGCCCCCGAGTTGCTGGCCCCCAACGGCGACCTGTATAACGTGTTTGCCTGGGCCTTGGACGTCTTGGCCAAACGCCTCCGTCCCATGCACGTCTTTATCCTGGATTACGACCAATCGCCCGCCGGCTGCCGGGACGCCCTGCTGCAACTTACCTCCGGGATGGTCCAGACCCACGTCACCACCCCAGGCTCCATACCGACGATCTGCGACCTGGCGCGCACGTTTGCCCGGGAGATGGGGGAGGCTAACTGA | – | less represented | lower band is detected | – | –
